This is an account of results in the supplement of paper PMC12042874.

± gives the uncertainty stated by the source.

A short description of this data set: amyloid nucleation score (Sup35N fusion, yeast selection) (log enrichment); library NNK3; higher = more nucleation; inactive = no reads after selection. A digest of the protocol: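 The nucleation score is a DiMSum log enrichment of output over input reads, centred on the mode score of non-aggregating sequences. Sequences under 100 input reads were excluded, and reads came from Illumina sequencing of plasmid inserts. Psi-negative yeast expressing Sup35N fused to peptides of 20 random codons were induced with 100 μM copper sulfate for 24 hours and grown 7 days at 30°C on medium lacking adenine and uracil. Random libraries had three technical output replicates.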
Regarding RVYHLIWFFYYLYNGHFISS, the amyloid nucleation score entry is “inactive”.
With RWLPMSNVAGGQKRKMLASL the entry was “inactive”; with RWNLDWSSLSAGHGKYSQEY, “inactive”.
To RWNSISI belongs “inactive”.
To RWSVCSCYSWERSGSRSQ belongs “inactive”; to RYADHAYLVPKFGQTEQENV, “inactive”.
Regarding RYDCRQPIAEFVVWAV, the amyloid nucleation score result is “inactive”.
To RYDLCLDLALLRGNWWDLYL belongs “inactive”; to RYDMRVNVVFTCPWRDSNND, 0.894 ± 0.28.
To RYDYFLFLIFSFLCTVDPMV belongs -0.211 ± 0.31.
To RYGFDRIPIFLLNVAMNVYP belongs 0.535 ± 0.58; to RYIFNQANSMVQYRFVYDVR, 1.72 ± 0.069.
Take RYLDCFVVVLVSDFMLRYVS: the amyloid nucleation score entry was “inactive”.
With RYLIVVFASC the entry was “inactive”; with RYLWVLNRIGPVWCSGFRVW, “inactive”; with RYMFWQWRGEL, 0.958 ± 0.17.
With RYNGSTTGSRLYMLLSMSLN the entry was “inactive”; with RYNLSFFLYFSQANNHQNLF, “inactive”; with RYRIPTSFL, “inactive”.
To RYRLKM belongs “inactive”; to RYRLSMELT, “inactive”.
Take RYSGANVDNYVN: the amyloid nucleation score entry was “inactive”.
To RYSLCCYGGFFRYSRDFMRR belongs 1.14 ± 0.14.
With RYTFVGT the figure was -0.408 ± 0.68; with RYTIGFHLSMDSAYSISFYP, “inactive”; with RYYLFLVPSGVWGYVVLRDS, 0.656 ± 0.21.
With SACVGFMGPRNIRL the entry was “inactive”; with SADITSTLGRYAFYF, “inactive”.
With SAFCCRSMSGVEFLRAFVSK, the amyloid nucleation score result is “inactive”.
To SAGDTDRRPVFH belongs -0.058 ± 1; to SAGTLGGYDFVYVAVDSLHR, “inactive”; to SALEKVDGATSIEVLPTNRR, “inactive”.
To SALKGLTRELSVRVY belongs “inactive”; to SALLQAIF, “inactive”.
To SAMCICLICALGVCPTMDGA belongs 2.5 ± 0.073; to SARGCTNSSSNGLGRGHQTG, “inactive”; to SAWLATGTYEVKAQRG, “inactive”.
In the case of SAYKKASVWGLRLQSSRS, the amyloid nucleation score entry is “inactive”.
As to SAYVYTD, the amyloid nucleation score was -0.156 ± 0.66.
Turning to SCEDLWNNMIAWMFATSRR, the amyloid nucleation score came to 1.26 ± 0.1.
SCILHYSDYATWLGRYVKVI: the amyloid nucleation score entry is “inactive”.
Take SCLRHPSTSSQNKSCLPDIP: the amyloid nucleation score result is “inactive”.
To SCMVNMSPVGWDSAGGEQGV belongs “inactive”; to SCNRSSSV, “inactive”; to SCPLR, “inactive”.
To SCRDDLLVMSKVTLITMT belongs “inactive”; to SCSLCWPIHRDFHMCTSSVC, “inactive”.
With SCSSCYIELKWLYLRILLDC the entry was “inactive”; with SCTLQNFRGLKNSFYGYYAT, “inactive”; with SCTYVSFVSSVRVTA, “inactive”.
In the case of SCVMSWIFWNFVWCYSVRCV, the amyloid nucleation score entry is “inactive”.
With SCVWFSL the entry was “inactive”; with SCYSLSSESSCSVGMCSTLG, “inactive”.
With SDAVSIWGQKSNISSICNDS the entry was “inactive”; with SDFFTLSS, “inactive”; with SDGDVMFLVKIEAGAFSGGM, “inactive”.
With SDIYWNGGLMYWICSMSVFI the figure was 2.84 ± 0.078; with SDNGEIMILYRLRAVGDFE, “inactive”; with SDPVPVMDIALYLVNPQLPS, “inactive”.
On to SDRFHVAHNNFLMRGKGFRT, for which the amyloid nucleation score entry was “inactive”.
To SDYGSFLEFH belongs -0.27 ± 0.79.
To SEFGPIEATSAHMFESPFKG belongs “inactive”; to SEHFRN, “inactive”.
With SELFSEMREESKGRFNIWEV the entry was “inactive”.
With SEQFSPCLVGQLRMDYSWI, the amyloid nucleation score entry was “inactive”.
To SFAKHHDMK belongs “inactive”; to SFCRRNISKVFYNFNNCATA, “inactive”.
With SFCWASKSVHRSRG the entry was “inactive”.
To SFDNSWVVGAIELNDFDSWH belongs “inactive”; to SFERGMSENLFIVGPGEFVG, “inactive”.
In turn, SFEYHNWNDM yielded an amyloid nucleation score of 0.361 ± 0.18.
As for SFFTKADAGMPDLRSFMESC, the amyloid nucleation score result was “inactive”.
As for SFGFALLGVVMRITAVRYPY, the amyloid nucleation score result is “inactive”.
With SFGTLQKVK the entry was “inactive”.
To SFHSPYL belongs “inactive”.
With SFLGCFHGDY the entry was “inactive”; with SFLIGVV, “inactive”.
With SFLLFYVLRYP, the amyloid nucleation score result is “inactive”.
To SFLSWMVFANFKRVHPGWVP belongs “inactive”.
Consider SFLVSSINNVQGFFSVNGYV, for which the amyloid nucleation score was found to be 0.085 ± 0.26.
With SFLWKIMISCYMMIVFCCVS the entry was “inactive”.
With SFNSRIIKRDDCFMDLIFWT the figure was 1.07 ± 0.12; with SFQAWVYFVSRLFLECFSSR, “inactive”; with SFQSLTM, “inactive”.
Regarding SFRSSSYEDNCLLVVDNVRT, the amyloid nucleation score result is “inactive”.
With SFSCYCTLLGLSVHYVNPTV the figure was 1.82 ± 0.1; with SFSLNRRWFNIGS, “inactive”.
To SFSMIRE belongs “inactive”; to SFSMKKGQHQLIS, “inactive”.
With SFWIV the entry was “inactive”.
For SFYGSIQGQNLLTLLNMKTR, the amyloid nucleation score entry is “inactive”.
SGASYVQS: the amyloid nucleation score entry was “inactive”.
To SGCCLDSLYLTIRLDCLRWR belongs “inactive”; to SGCYNYFCGFLLKYSMYVSL, “inactive”; to SGFVSWN, “inactive”.
For the substance SGGKWFIFRCT, the amyloid nucleation score entry was “inactive”.
With SGGTEKRSKRAGLLLFRTEE the entry was “inactive”.
To SGGVFCYQGSPGVVY belongs “inactive”; to SGLDRWDAEVVSILWVKLTV, 1.44 ± 0.094.
To SGMLKLSWVVW belongs 0.667 ± 0.22; to SGNDNFYVDCNWLNIIVNET, 2.79 ± 0.078.
SGRCRSGRQAIRCCILLNVL: the amyloid nucleation score entry was “inactive”.
With SGSDILISYLLFCYNACLTF the entry was “inactive”.
To SGSKR belongs “inactive”; to SGSRLGHCSSLTMKSSLSVD, 1.06 ± 0.17.
With SGVMNWKT the entry was “inactive”; with SGWIYMERIAS, “inactive”; with SGYCYGFVMNDGHSSVRGDE, -0.215 ± 0.74.
In the case of SHIDAIAQGNTVSSCGYV, the amyloid nucleation score entry was “inactive”.
Turning to SHKNGFFSQETR, the amyloid nucleation score entry was “inactive”.
With SHKPLDRYLIEWLGLQELLT the entry was “inactive”; with SHLPCLFCYV, “inactive”.
To SHLSYYTFKWSSEATRAVPM belongs 1.82 ± 0.11; to SHNVSTWRMICSWLVRPFIR, “inactive”; to SHSMM, -0.218 ± 0.66.
To SHVSQMWSGYAGNKEEPTAW belongs 0.928 ± 0.19; to SHWYIYSYSVDPCAGHAAVW, “inactive”.
As for SICCGDSVVFTVSLPVAGSF, the amyloid nucleation score result is “inactive”.
To SIDHVLWYNIGRVGSCWSLR belongs -0.188 ± 0.27.
For the substance SIGCSSGFGRCLDLG, the amyloid nucleation score result is “inactive”.
For SIGELPT, the amyloid nucleation score entry was “inactive”.
With SIIDKCATTLTDVSGNQLGV the entry was “inactive”; with SIIDKE, -0.605 ± 0.98.
To SIKSLTIDSCLTS belongs 0.809 ± 0.2; to SILLDMSDQFPALGFSLFII, “inactive”.
With SIMFGNLSMAKVKYMNFL the figure was 0.862 ± 0.12; with SINRTKQCLEVNFHLDDCKA, “inactive”; with SISLITFCRMCDAWLWRFGV, “inactive”.
On to SITSAPSLYMSGFTKVCSGE, for which the amyloid nucleation score entry was “inactive”.
To SIYKE belongs “inactive”; to SKAMLTVA, “inactive”; to SKEAVLRVNPVVTFFSGSTR, “inactive”.
With SKFIRRT the entry was “inactive”; with SKHSVAGQTKC, “inactive”.
